Changes are numbered by the printed parent chain.
How the values were obtained:
Human IL-33 Flag®His [1] = target: T1, Human IL-33 Flag®His (human); assay: cell-based or functional assay
T1 chain: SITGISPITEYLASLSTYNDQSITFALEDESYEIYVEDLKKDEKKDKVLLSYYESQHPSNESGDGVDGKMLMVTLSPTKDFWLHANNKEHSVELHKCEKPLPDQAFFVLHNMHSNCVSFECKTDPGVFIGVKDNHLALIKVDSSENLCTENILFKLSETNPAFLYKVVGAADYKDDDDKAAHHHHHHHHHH

Human IL-33 Flag®His [2] = target: T1, Human IL-33 Flag®His; assay: HTRF competition, IgG titrated against biotinylated human ST2-Fc
Description: The ability of anti-IL-33 antibodies to inhibit the binding of FLAG®-His tagged IL-33 to the ST2 receptor was assessed in a biochemical HTRF® (Homogeneous Time-Resolved Fluorescence, Cisbio International) competition assay, the principles of which are described above.
Activity of purified IgG preparations were determined by competing a dilution series of the purified IgG against biotinylated human or mouse ST2.Fc for binding to FLAG® His-tagged human, cynomolgus or mouse IL-33.
Purified or unpurified anti-IL-33 antibody samples were tested for inhibition of FLAG®-His tagged IL-33 binding ST2-Fc by adding 10 microlitres of each dilution of antibody test sample to a 384 well low volume assay plate (Costar 3676). Next, a solution containing 4 nM biotinylated human or mouse ST2-Fc and 20 nM streptavidin XL665 detection (Cisbio International, 611SAXLB) was prepared and 5 microlitres of the mix added to the assay plate. This was followed by the addition of 5 microlitres of a solution containing 1.2 nM FLAG®-His tagged human, cynomolgus or mouse IL-33 combined with 1.72 nM anti-FLAG® cryptate detection (Cisbio International, 61FG2KLB). All dilutions were performed in assay buffer comprised of Dulbeccos PBS (Invitrogen, 14190185) containing 0.8 M potassium fluoride (BDH 103444T) and 0.1% BSA (Sigma A9576). Assay plates were incubated for 2 hour at room temperature followed by 16 hour at 4° C. before reading time resolved fluorescence at 620 nm and 665 nm emission wavelengths using an EnVision plate reader (Perkin Elmer).

His10/Avi Human IL33-01 [3] = target: T2, His10/Avi Human IL33-01 (human); assay: cell-based or functional assay
T2 chain: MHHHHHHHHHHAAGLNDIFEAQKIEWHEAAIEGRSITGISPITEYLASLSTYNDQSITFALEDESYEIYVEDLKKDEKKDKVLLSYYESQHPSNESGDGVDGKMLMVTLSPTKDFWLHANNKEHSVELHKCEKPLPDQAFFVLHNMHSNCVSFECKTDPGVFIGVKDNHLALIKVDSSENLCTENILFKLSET

[4] = target: T3, Full-length human IL-33 (amino acids 1-270), HEK293-EBNA cell lysate (human, UniProt O95760 1-270); assay: cell-based or functional assay
T3 sequence (looked up): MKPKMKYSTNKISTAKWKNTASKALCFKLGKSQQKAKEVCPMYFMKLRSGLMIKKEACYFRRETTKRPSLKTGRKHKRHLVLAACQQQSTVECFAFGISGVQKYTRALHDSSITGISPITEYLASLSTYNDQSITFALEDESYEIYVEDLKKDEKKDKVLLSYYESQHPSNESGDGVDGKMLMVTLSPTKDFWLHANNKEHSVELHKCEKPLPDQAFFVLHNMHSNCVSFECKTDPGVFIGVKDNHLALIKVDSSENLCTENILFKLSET

His10/Avi Human IL33-01 [5] = target: T2, His10/Avi Human IL33-01; assay: cell-based or functional assay
His10/Avi Human IL33-01 [6] = target: T2, His10/Avi Human IL33-01; assay: HTRF epitope competition, IgG titrated; competitor DyLight labelled 33_640117 IgG; overnight
Description: (§1) As the epitope competition assay utilising 33_640027 reached its limit of sensitivity, an assay using 33_640117 was used for testing purified scFv samples. The assay was essentially as described for the 33v20064 competition assay with the following modifications: 2.5 nM DyLight labelled 33_640117 was prepared and 2.5 microlitres added to the assay plates. This was followed by the addition of 2.5 microlitres of a solution containing 0.12 nM biotinylated human IL-33-01 combined with 0.75 nM streptavidin cryptate detection (Cisbio International, 610SAKLB) for the human assay or a solution containing 0.24 nM biotinylated cynomolgus IL-33 combined with 1.5 nM streptavidin cryptate detection (Cisbio International, 610SAKLB) for the cynomolgus assay. Fluorescence was read after one hour and overnight incubation.
(§2) The ability of anti-IL-33 antibodies to inhibit the binding of biotinylated His Avi human IL-33 or cynomolgus His Avi IL-33 to the DyLight labelled 33_640117 IgG was assessed in a biochemical HTRF® (Homogeneous Time-Resolved Fluorescence, Cisbio International) competition assays as described above.

His10/Avi Cyno IL-33 = target: T4, His10/Avi Cyno IL-33 (cynomolgus monkey); assay: HTRF epitope competition, IgG titrated; competitor DyLight labelled 33_640117 IgG; 1 hour
T4 construct: also called Cynomolgus 10His Avitag IL-33; biotinylated His Avi cynomolgus IL-33
T4 chain: T2 chain with E77K, N94S, H118Q, M146R, H147S, S148F, S177Y, C182G, T183S, T193I
Description: as §1, §2

His10/Avi Human IL33-01 [7] = target: T2, His10/Avi Human IL33-01; assay: as above
Description: as §1, §2

[8] = target: T5, Human IL-33 (Axxora/Adipogen AG-40B-0038) (human, UniProt O95760 112-270, limits assumed); assay: cell-based or functional assay
T5 sequence (looked up): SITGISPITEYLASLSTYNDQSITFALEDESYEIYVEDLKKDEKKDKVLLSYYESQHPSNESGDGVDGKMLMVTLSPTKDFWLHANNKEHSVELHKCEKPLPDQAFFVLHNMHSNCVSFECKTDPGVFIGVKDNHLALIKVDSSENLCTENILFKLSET

Human IL-33 Flag®His [9] = target: T1, Human IL-33 Flag®His; assay: ELISA, biotinylated antigen on streptavidin plate, anti-human IgG HRP
Description: (§3) 96-well Greiner polypropylene plates (Greiner, 650201) were used for dilution preparation. Generally, each dilution was prepared in duplicate. IgG dilutions were allowed to block in PBS-M for 1 hour at room temperature before being used directly in ELISA experiments.
(§4) Streptavidin plates (Thermo Scientific, AB-1226) were coated with biotinylated antigen at 0.5 μg/ml in PBS and incubated overnight at 4° C. Plates were washed 3× with PBS and blocked with 300 μl/well blocking buffer (PBS-M) for 1 hour. Plates were washed 1× with PBS and blocked samples added, 50 μl/well for 1 hour at room temperature. […] Plates were washed 3× with PBS-T and developed with TMB, 50 μl/well (Sigma, T0440). The reaction was quenched with 50 μl/well 0.1M H2504 before reading on an EnVision™ plate reader, or similar equipment, at 450 nm.
(§5) Species cross-reactivity of anti-IL-33 antibodies was determined using a plate-based ELISA. Streptavidin plates (Thermo Scientific, AB-1226) were coated with biotinylated antigen at 0.5 μg/ml in PBS. Binding of purified IgG preparations was detected with anti-human IgG HRP (Sigma, A0170).

Mouse IL-33 Flag®His = target: T6, Mouse IL-33 Flag®His (mouse); assay: as above
T6 construct: C-terminal FLAG 10xHis tag, E. coli; also called Mature Mouse IL-33_FH; mouse IL-33 FH
T6 chain: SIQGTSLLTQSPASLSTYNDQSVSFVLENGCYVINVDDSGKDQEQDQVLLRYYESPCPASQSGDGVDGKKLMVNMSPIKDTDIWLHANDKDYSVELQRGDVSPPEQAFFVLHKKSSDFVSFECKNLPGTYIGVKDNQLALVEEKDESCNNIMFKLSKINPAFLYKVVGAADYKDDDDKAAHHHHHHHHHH
Description: as §3, §4, §5

[10] = target: T7, Cynomolgus IL-33 Flag®His (cynomolgus monkey); assay: as above
T7 construct: C-terminal FLAG 10xHis tag, E. coli; also called Mature Cynomolugus IL-33; cyno IL-33 FH
T7 chain: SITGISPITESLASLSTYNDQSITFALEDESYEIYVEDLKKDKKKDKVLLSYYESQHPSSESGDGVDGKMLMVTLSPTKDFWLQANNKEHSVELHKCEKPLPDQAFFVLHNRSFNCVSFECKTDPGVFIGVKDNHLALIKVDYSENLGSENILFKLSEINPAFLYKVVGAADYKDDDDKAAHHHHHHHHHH
Description: as §3, §4, §5

B1: IL330020 IgG1 (antibody, V domains shown)
VH: QVQLVQSGAEVKKPGASVKVSCKASGYTFTSYGISWVRQAPGQGLEWMGWISDYQGYTKYAEKFQGRVTMTTDTSTNTAYMELRSLRSDDTAVYYCARLYSSGWIRQYHFDYWGRGTLVTVSS
VL: SYELTQPPSVSVSPGQTASITCSGDNLKDKYVSWYQQKPGQAPVLVLYQDRKRPSGIPERFSGSNSGNTATLTISGTQAMDEADYYCQAWDSGTAFGGGTKVTVL
notes: Human IgG1, lambda constant
Human IL-33 Flag®His [1]
  IC50, human ST2 transfected HeLa NFkB luciferase reporter assay: 147 nM
Human IL-33 Flag®His [2]
  IC50: 40 nM

B2: 33_640237-2 IgG1 (antibody, V domains shown)
VH: EVQLLESGGGLVQPGGSLRLSCAASGFTFSSYAMSWVRQAPGKGLEWVSGIADDFTSTYYADPVKGRFTISRDNSKNTLYLQMNSLRAEDTAVYYCARDLWMMNYAGGLRYPFGYWGQGTMVTVSS
VL: SYVLTQPPSVSVSPGQTASITCSGERMGDKYAAWYQQKPGQSPVLVIYRDTKRPSGIPERFSGSNSGNTATLTISGTQAMDEADYYCGVLKQDTGVFGGGTKVTVL
His10/Avi Human IL33-01 [3]
  IC50 (nM) vs. His Avi IL-33, Huvec IL-8 assay: 0.105 nM

B3: 33_640087-7 IgG1 (antibody, V domains shown)
VH: EVQLLESGGGLVQPGGSLRLSCAASGFTFSSYAMSWVRQAPGKGLEWVSGISAIDQSTYYADSVKGRFTISRDNSKNTLYLQMNSLRAEDTAVYYCARQKFMQLWGGGLRYPFGYWGQGTMVTVSS
VL: B2 VL with R26G, L90I, K91Q, Q92D, D93N
notes: IgG1
His10/Avi Human IL33-01 [3]
  IC50 (nM) vs. His Avi IL-33, Huvec IL-8 assay: 0.041 nM
[4]
  IC50, Huvec IL-8 assay vs. full length IL-33 cell lysate: 0.073 nM
His10/Avi Human IL33-01 [5]
  IC50, Huvec IL-8 assay vs. His Avi IL-33: 0.025 nM
His10/Avi Human IL33-01 [6]
  IC50: 0.1 nM
His10/Avi Cyno IL-33
  IC50: 0.2 nM
His10/Avi Human IL33-01 [7]
  IC50: 0.1 nM

B4: 33_640201 IgG1 (antibody, V domains shown)
VH: B3 VH with G50S, S52D, D55S, Q56S, A97S
VL: B2 VL with R49Q, M80V
notes: IgG1; also called ZZ1JMY-H09
[4]
  IC50, Huvec IL-8 assay vs. full length IL-33 cell lysate: 0.101 nM
His10/Avi Human IL33-01 [5]
  IC50, Huvec IL-8 assay vs. His Avi IL-33: 0.046 nM
His10/Avi Human IL33-01 [6]
  IC50: 0.2 nM
His10/Avi Cyno IL-33
  IC50: 0.3 nM
His10/Avi Human IL33-01 [7]
  IC50: 0.2 nM

B5: IL330149 IgG (antibody, V domains shown)
VH: EVQLLESGGGLVQPGGSLRLSCAASGFTFSSYAMSWVRQAPGKGLEWVSAISGSGGSTYYADSVKGRFTISRDNSKNTLYLQMNSLRAEDTAVYYCVRTLAYSTSWFFDYWGRGTLVTVSS
VL: SYELTQPPAVSVSPGQTARITCSGDALPKKYAYWYQQKSGQAPVLVIYEDAKRPSGIPERFSGSSSGTMATLTVSGAQVEDEADYYCYSTDSSGPVFGGGTKLTVL
notes: IgG1 or IgG1-TM; also called IL33149
[8]
  IC50, Mast cell IL-6 production: 298 nM
Human IL-33 Flag®His [9]
  EC50: 0.23 nM
Mouse IL-33 Flag®His
  EC50: 0.17 nM
[10]
  EC50: 0.35 nM

B6: IL330099 IgG (antibody, V domains shown)
VH: QVQLQQSGAEVKKPGASVKVSCKASGYTFTSFYMNWVRQAPGQGLEWMGIISPRGGTTSYAQNFQGRVTMTRDTSTSTVYMELSGLRSDDTAVYYCATESFYYGSGTYSGDYYLYSGMADWGKGTLVTVSS
VL: SSELTQDPAVSAALGQTVRITCQGDSLRSYYASWYQQKPGQAPVLVIYGKNDRPSGIPDRFSGSSSGNTASLTITGAQAEDEADYYCNSRDSSGNHVVFGGGTKLTVL
notes: IgG1 or IgG1-TM
[8]
  IC50, Mast cell IL-6 production: 1220 nM
Human IL-33 Flag®His [9]
  EC50: 0.4 nM
Mouse IL-33 Flag®His
  EC50: 0.38 nM
[10]
  EC50: 0.35 nM

— patent publication US20200353078A1 (AstraZeneca / MedImmune, published 2020)
